Experiments:
[1] = molecular target: histone H3 1–15 K9me3 peptide (UniProt P68431); assay: fluorescence polarisation; fluorescence-labelled peptide constant at 40 nM, SUV39H1 (42–100 or 44–106) titrated from low to high micromolar; 20 mM Tris-HCl pH 8.5 or 7.5, 150 mM NaCl, 1 mM DTT, 0.01% Tween-X-100; 10 µL in 384-well plates; fit to a hyperbolic function
[2] = molecular target: histone H3 1–15 K9me2 peptide (UniProt P68431); assay: as above

## human SUV39H1 chromodomain (aa 42–100), complete chromodomain (from UniProt O43463 42-100) (domain or fragment)
[1]
  Kd: 20 µM
[2]
  Kd: 29 µM

From publication PMC3532415
